Source: paper PMC10039900, “Characterization of human oxidoreductases involved in aldehyde odorant metabolism” (Scientific Reports, 2023)

Molecular target: the molecule itself
Experiment: crystal structure; sitting drop vapor diffusion at 20 °C, ALDH3A1 2 mg/ml, 18% PEG 3350 in 0.1 M potassium acetate pH 7.5; crystals soaked in mother liquor plus 10 mM octanal; 1.80 Å

B1: aldehyde dehydrogenase family 3 member A1 (ALDH3A1) (enzyme, human)
chain: SKISEAVKRARAAFSSGRTRPLQFRIQQLEALQRLIQEQEQELVGALAADLHKNEWNAYYEEVVYVLEEIEYMIQKLPEWAADEPVEKTPQTQQDELYIHSEPLGVVLVIGTWNYPFNLTIQPMVGAIAAGNSVVLKPSELSENMASLLATIIPQYLDKDLYPVINGGVPETTELLKERFDHILYTGSTGVGKIIMTAAAKHLTPVTLELGGKSPCYVDKNCDLDVACRRIAWGKFMNSGQTCVAPDYILCDPSIQNQIVEKLKKSLKEFYGEDAKKSRDYGRIISARHFQRVMGLIEGQKVAYGGTGDAATRYIAPTILTDVDPQSPVMQEEIFGPVLPIVCVRSLEEAIQFINQREKPLALYMFSSNDKVIKKMIAETSSGGVAANDVIVHITLHSLPFGGVGNSGMGSYHGKKSFETFSHRRSCLVRPLMNDEGLKVRYPPSPAKMTQH
notes: human ALDH3A1, UniProt P30838; Subcloned between NdeI and SacI; The crystal was soaked with 10 mM octanal (a small molecule, not a partner); also called aldehyde dehydrogenase 3A1; Aldehyde dehydrogenase, dimeric NADP-preferring; source: E. coli BL21(DE3), purified (two ammonium sulfate precipitations, two chromatography steps)
B1: binds.
